Source: patent US7067277 (H LUNDBECK A S, dated 2006)
Where a chain is given by its changes, count along the chain named.

B1: Human Gαq/z5 (Ala→Ser substitution at position 171) (other)
chain: MTLESIMACCLSEEAKEARRINDEIERQLRRDKRDARRELKLLLLGTGESGKSTFIKQMRIIHGSGYSDEDKRGFTKLVYQNIFTAMQAMIRAMDTLKIPYKYEHNKAHAQLVREVDVEKVSAFENPYVDAIKSLWNDPGIQECYDRRREYQLSDSTKYYLNDLDRVADPSYLPTQQDVLRVRVPTTGIIEYPFDLQSVIFRMVDVGGQRSERRKWIHCFENVTSIMFLVALSEYDQVLVESDNENRMEESKALFRTIITYPWFQNSSVILFLNKKDLLEEKIMYSHLVDYFPEYDGPQRDAQAAREFILKMFVDLNPDSDKIIYSHFTCATDTENIRFVFAAVKDTILQLNLKYIGLC
B2: C. elegans Gαq/z5 (other)
chain: MACCLSEEAREQKRINQEIEKQLQRDKRNARRELKLLLLGTGESGKSTFIKQMRIIHGQGYSEEDKRAHIRLVYQNVFMAIQSMIRAMDTLDIKFGNESEELQEKAAVVREVDFESVTSFEEPYVSYIKELWEDSGIQECYDRRREYQLTDSAKYYLSDLRRLAVPDYLPTEQDILRVRVPTTGIIEYPFDLEQIIFRMVDVGGQRSERRKWIHCFENVTSIMFLVALSEYDQVLVECDNENRMEESKALFRTIITYPWFTNSSVILFLNKKDLLEEKILYSHLADYFPEYDGPPRDPIAAREFILKMFVDLNPDADKIIYSHFTCATDTENIRFVFAAVKDTILQHNLKYIGLC
B3: C. elegans Gαq/z9 (other)
chain: B2 chain with H347N

Each binder was assayed against T1, human Y5 receptor (human, UniProt Q15761 1-445) (assay: cell-based or functional assay).
T1 sequence (looked up): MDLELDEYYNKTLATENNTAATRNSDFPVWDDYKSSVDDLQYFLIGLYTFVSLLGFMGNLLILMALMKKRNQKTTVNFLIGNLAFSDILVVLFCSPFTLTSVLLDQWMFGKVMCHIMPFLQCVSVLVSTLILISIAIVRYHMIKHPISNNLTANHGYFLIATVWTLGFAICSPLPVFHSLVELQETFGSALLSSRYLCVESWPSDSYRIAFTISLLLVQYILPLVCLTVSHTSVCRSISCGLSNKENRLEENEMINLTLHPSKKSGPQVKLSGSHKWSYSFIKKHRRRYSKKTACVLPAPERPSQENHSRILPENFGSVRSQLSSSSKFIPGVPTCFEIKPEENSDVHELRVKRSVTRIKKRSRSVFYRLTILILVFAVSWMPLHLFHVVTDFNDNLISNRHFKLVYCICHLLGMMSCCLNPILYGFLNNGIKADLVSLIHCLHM
In the case of B1, the “max Ca2+ signal, COS-7, FLIPR; agonist NPY” value (“max Ca2+ signal … agonist NPY” for short) is reported as 6410 fluorescence units. B2 was tested, and the “max Ca2+ signal … agonist NPY” value was 5310 fluorescence units. In the case of B3, the “max Ca2+ signal … agonist NPY” value is reported as 6680 fluorescence units.

Each binder was assayed against T2, human GALR1 receptor (human, UniProt P47211 1-349) (assay: cell-based or functional assay).
T2 sequence (looked up): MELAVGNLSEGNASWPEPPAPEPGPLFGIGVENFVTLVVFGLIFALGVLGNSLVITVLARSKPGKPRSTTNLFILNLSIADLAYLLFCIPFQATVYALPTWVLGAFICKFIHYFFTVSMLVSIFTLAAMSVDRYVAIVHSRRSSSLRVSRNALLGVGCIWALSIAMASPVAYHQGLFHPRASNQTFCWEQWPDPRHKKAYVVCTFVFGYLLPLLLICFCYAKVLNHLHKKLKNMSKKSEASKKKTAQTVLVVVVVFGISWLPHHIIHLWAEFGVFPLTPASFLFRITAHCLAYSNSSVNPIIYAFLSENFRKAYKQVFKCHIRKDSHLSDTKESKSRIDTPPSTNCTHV
B1 was tested, and the “max Ca2+ signal, COS-7, FLIPR; agonist GAL” value (“max Ca2+ signal … agonist GAL” below) was 4060 fluorescence units. B2 was tested, and the “max Ca2+ signal … agonist GAL” value was 7650 fluorescence units. In the case of B3, the “max Ca2+ signal … agonist GAL” value is reported as 8490 fluorescence units.

What follows are binders tested against T3, human GALR2 receptor (human, UniProt O43603 1-387) (assay: cell-based or functional assay).
T3 sequence (looked up): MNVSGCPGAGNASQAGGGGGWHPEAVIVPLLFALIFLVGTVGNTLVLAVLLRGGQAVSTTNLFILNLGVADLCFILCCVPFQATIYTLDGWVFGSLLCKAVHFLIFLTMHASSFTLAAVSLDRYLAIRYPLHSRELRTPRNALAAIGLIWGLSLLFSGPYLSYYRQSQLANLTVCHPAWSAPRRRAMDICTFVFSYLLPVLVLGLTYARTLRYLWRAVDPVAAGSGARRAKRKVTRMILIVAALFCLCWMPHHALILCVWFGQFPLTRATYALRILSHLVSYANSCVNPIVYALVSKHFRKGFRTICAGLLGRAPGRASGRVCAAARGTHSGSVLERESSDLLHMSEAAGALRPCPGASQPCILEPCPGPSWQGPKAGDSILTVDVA
In the case of B1, the “max Ca2+ signal … agonist GAL” value is reported as 5990 fluorescence units. In the case of B2, the “max Ca2+ signal … agonist GAL” value is reported as 5470 fluorescence units. With B3 the “max Ca2+ signal … agonist GAL” value was 4900 fluorescence units.

The binders below were run against human dopamine D2 receptor (human, UniProt P14416 1-443) (assay: cell-based or functional assay).
Chain of human dopamine D2 receptor (P14416 whole entry): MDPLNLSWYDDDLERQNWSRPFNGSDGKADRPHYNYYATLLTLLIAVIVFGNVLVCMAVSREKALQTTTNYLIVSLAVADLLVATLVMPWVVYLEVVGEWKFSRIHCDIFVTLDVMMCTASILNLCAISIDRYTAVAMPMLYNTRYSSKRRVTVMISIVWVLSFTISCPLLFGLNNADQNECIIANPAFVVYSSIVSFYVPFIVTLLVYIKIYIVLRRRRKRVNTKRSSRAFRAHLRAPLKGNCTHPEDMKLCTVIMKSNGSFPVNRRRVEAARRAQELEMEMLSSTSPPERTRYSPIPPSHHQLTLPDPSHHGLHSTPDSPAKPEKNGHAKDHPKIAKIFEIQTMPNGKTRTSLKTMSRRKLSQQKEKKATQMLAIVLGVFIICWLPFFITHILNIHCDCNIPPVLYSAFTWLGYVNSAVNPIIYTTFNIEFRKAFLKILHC
B1 was tested, and the “max Ca2+ signal, COS-7, FLIPR; agonist DA” value (shortened to “max Ca2+ signal … agonist DA”) was 15600 fluorescence units. For B2, the “max Ca2+ signal … agonist DA” value was 7620 fluorescence units. With B3 the “max Ca2+ signal … agonist DA” value was 4300 fluorescence units.

What follows are binders tested against T4, rat GALR2 receptor (rat, UniProt O08726 1-372) (assay: cell-based or functional assay).
T4 sequence (looked up): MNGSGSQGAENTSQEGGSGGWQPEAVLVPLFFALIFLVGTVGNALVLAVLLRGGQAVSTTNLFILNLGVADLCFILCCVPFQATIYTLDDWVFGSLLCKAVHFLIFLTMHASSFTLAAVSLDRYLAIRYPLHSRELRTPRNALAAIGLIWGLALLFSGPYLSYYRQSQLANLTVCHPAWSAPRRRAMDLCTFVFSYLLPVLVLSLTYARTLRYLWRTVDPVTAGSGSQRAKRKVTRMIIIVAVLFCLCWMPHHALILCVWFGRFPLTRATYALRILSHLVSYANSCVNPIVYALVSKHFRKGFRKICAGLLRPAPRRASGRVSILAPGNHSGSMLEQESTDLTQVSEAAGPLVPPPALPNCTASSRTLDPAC
In the case of B1, the “max Ca2+ signal … agonist GAL” value is reported as 4860 fluorescence units. For B2, the “max Ca2+ signal … agonist GAL” value was 4200 fluorescence units. With B3 the “max Ca2+ signal … agonist GAL” value was 4470 fluorescence units.

The binders below were run against human Y4 receptor (human, UniProt P50391 1-375) (assay: cell-based or functional assay).
Chain of human Y4 receptor (P50391 whole entry): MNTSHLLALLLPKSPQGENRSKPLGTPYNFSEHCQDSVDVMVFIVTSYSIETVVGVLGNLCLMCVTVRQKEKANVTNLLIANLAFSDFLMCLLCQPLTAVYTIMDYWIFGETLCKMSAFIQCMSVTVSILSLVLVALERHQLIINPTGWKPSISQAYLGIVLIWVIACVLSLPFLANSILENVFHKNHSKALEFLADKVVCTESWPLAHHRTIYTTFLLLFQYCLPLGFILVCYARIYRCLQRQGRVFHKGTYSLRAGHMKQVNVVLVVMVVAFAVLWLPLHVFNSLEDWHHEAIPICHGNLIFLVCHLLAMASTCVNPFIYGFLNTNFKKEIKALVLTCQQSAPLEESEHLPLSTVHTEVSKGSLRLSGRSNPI
In the case of B1, the “max Ca2+ signal, COS-7, FLIPR; agonist PP” value (from here on “max Ca2+ signal … agonist PP”) is reported as 9970 fluorescence units. With B2 the “max Ca2+ signal … agonist PP” value was 9420 fluorescence units. In the case of B3, the “max Ca2+ signal … agonist PP” value is reported as 7400 fluorescence units.

Each binder was assayed against human dopamine D5 receptor (human, UniProt P21918 1-477) (assay: cell-based or functional assay).
Chain of human dopamine D5 receptor (P21918 whole entry): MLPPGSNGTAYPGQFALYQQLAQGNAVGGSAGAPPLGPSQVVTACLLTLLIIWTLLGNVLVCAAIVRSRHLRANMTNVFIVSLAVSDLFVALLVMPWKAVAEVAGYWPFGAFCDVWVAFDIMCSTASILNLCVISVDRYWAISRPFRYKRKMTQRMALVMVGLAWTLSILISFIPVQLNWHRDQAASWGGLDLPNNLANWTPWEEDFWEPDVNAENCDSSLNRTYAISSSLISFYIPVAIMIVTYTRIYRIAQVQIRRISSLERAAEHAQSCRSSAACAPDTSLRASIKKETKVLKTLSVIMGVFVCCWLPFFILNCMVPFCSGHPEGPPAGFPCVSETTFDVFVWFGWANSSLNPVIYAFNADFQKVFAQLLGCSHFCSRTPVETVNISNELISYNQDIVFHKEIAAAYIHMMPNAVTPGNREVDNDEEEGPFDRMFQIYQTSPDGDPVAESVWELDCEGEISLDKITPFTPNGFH
B1 was tested, and the “max Ca2+ signal … agonist DA” value was 782 fluorescence units. For B2, the “max Ca2+ signal … agonist DA” value was 657 fluorescence units. For B3, the “max Ca2+ signal … agonist DA” value was 797 fluorescence units.

What follows are binders tested against human GLP-1 receptor (human, UniProt P43220 24-463) (assay: cell-based or functional assay).
With B1 the “max Ca2+ signal, COS-7, FLIPR; agonist GLP-1” value was 287 fluorescence units. For B2, the “max Ca2+ signal, COS-7, FLIPR; agonist GLP-1” value was 131 fluorescence units. With B3 the “max Ca2+ signal, COS-7, FLIPR; agonist GLP-1” value was 135 fluorescence units.

Each binder was assayed against human MCH receptor (human, UniProt Q99705 1-353) (assay: cell-based or functional assay).
Chain of human MCH receptor (Q99705 whole entry): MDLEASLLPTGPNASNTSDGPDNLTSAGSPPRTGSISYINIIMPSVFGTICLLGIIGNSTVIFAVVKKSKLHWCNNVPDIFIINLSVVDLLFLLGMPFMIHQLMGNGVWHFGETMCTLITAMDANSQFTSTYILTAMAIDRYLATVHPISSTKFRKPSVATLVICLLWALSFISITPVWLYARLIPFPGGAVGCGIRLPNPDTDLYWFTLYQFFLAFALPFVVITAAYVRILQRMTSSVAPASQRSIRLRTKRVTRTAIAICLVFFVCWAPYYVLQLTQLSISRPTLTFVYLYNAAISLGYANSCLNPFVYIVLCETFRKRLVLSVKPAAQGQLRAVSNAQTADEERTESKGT
For B1, the “max Ca2+ signal, COS-7, FLIPR; agonist MCH” value (shortened to “max Ca2+ signal … agonist MCH”) was 783 fluorescence units. In the case of B2, the “max Ca2+ signal … agonist MCH” value is reported as 2700 fluorescence units. With B3 the “max Ca2+ signal … agonist MCH” value was 3330 fluorescence units.

The binders below were run against T5, human α2B adrenergic receptor (human, UniProt P18089 1-450) (assay: cell-based or functional assay).
T5 sequence (looked up): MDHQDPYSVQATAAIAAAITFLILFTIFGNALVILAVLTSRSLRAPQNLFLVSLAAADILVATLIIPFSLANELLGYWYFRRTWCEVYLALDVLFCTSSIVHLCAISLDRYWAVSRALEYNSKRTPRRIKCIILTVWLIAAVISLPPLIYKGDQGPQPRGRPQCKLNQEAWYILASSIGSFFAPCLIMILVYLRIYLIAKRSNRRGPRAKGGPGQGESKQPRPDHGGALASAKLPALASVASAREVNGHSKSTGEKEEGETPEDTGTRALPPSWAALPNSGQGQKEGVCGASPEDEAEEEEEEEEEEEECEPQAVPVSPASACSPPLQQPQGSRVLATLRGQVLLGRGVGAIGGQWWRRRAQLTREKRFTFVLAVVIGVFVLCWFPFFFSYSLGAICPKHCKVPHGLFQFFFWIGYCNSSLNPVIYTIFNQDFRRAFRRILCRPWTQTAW
With B1 the “max Ca2+ signal, COS-7, FLIPR; agonist NE” value (“max Ca2+ signal … agonist NE” for short) was 4520 fluorescence units. In the case of B2, the “max Ca2+ signal … agonist NE” value is reported as 4980 fluorescence units. With B3 the “max Ca2+ signal … agonist NE” value was 5140 fluorescence units.

The binders below were run against human NPFF2 receptor (human, UniProt Q9Y5X5 1-522) (assay: cell-based or functional assay).
Chain of human NPFF2 receptor (Q9Y5X5 whole entry): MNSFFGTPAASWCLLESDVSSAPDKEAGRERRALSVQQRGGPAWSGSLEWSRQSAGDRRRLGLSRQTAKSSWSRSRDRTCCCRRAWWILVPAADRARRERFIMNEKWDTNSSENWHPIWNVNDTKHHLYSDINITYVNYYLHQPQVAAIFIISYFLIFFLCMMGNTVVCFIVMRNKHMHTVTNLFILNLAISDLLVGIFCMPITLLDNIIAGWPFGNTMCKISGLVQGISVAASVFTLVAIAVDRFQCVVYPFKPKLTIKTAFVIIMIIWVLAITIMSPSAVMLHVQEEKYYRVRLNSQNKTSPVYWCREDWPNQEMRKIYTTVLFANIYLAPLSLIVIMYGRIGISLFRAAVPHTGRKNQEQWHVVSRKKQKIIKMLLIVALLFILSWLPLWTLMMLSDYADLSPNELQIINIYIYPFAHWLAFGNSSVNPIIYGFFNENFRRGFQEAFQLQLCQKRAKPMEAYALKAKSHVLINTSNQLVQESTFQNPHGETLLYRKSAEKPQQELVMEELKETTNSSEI
For B1, the “max Ca2+ signal, COS-7, FLIPR; agonist NPFF” value (shortened to “max Ca2+ signal … agonist NPFF”) was 20000 fluorescence units. With B2 the “max Ca2+ signal … agonist NPFF” value was 7570 fluorescence units. B3 was tested, and the “max Ca2+ signal … agonist NPFF” value was 4580 fluorescence units.

The binders below were run against human 5HT1B receptor (human, UniProt P28222 1-390) (assay: cell-based or functional assay).
Chain of human 5HT1B receptor (P28222 whole entry): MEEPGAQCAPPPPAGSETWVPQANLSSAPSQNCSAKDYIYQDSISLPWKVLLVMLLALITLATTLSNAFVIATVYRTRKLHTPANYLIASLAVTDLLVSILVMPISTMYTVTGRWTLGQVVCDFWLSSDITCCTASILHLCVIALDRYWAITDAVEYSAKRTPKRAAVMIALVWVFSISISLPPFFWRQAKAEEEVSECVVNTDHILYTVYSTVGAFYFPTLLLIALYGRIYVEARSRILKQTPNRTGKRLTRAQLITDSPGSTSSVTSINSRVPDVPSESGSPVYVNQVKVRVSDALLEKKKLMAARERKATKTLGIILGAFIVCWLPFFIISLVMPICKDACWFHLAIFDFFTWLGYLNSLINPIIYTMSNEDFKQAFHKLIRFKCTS
In the case of B1, the “max Ca2+ signal, COS-7, FLIPR; agonist 5HT” value (from here on “max Ca2+ signal … agonist 5HT”) is reported as 405 fluorescence units. With B2 the “max Ca2+ signal … agonist 5HT” value was 929 fluorescence units. In the case of B3, the “max Ca2+ signal … agonist 5HT” value is reported as 1220 fluorescence units.

These binders were tested against T6, human 5HT1F receptor (human, UniProt P30939 1-366) (assay: cell-based or functional assay).
T6 sequence (looked up): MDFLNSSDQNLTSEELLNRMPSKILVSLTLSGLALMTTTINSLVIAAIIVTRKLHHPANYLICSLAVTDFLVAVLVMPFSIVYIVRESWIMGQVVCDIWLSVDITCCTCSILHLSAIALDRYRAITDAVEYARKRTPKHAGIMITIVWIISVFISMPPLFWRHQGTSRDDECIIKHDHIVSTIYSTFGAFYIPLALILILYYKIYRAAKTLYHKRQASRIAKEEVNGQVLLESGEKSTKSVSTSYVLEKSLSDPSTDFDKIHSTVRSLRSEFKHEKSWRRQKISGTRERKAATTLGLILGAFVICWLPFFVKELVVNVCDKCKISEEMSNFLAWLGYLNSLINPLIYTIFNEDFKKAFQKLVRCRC
For B1, the “max Ca2+ signal … agonist 5HT” value was 0 fluorescence units. With B2 the “max Ca2+ signal … agonist 5HT” value was 243 fluorescence units. For B3, the “max Ca2+ signal … agonist 5HT” value was 384 fluorescence units.
